The assay has as its target CD33 naturally expressed on HL60 cells (human, UniProt P20138 18-364). Briefly: FACS.

Sequence of CD33 naturally expressed on HL60 cells (P20138 18-364): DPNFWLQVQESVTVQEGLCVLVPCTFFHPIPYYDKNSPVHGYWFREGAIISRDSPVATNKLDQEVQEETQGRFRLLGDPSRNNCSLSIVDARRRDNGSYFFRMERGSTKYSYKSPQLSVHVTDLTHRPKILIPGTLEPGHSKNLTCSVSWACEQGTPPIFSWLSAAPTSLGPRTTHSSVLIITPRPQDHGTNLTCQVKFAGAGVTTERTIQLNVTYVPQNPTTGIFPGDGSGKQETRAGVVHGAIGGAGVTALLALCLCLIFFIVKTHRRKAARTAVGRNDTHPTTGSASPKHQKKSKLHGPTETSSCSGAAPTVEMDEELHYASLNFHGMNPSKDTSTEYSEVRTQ

B1: CD33/CD16A bispecific antibody QP411543674368 (FC with L234A/L235A mutation for eliminating function) (bispecific antibody)
scFv: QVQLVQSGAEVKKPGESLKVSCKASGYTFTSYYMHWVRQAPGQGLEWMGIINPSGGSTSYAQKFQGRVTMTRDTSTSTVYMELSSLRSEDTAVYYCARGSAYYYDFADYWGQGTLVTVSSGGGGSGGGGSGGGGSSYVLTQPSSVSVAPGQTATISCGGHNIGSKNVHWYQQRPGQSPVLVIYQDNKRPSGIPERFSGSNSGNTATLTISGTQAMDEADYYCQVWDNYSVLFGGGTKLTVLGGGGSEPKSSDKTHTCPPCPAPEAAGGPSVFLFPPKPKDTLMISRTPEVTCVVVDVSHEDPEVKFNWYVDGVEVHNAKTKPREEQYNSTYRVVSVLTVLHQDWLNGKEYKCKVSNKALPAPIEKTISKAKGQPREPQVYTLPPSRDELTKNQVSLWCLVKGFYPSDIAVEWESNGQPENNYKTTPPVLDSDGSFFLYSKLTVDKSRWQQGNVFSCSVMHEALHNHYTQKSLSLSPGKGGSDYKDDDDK
heavy: QVQLVQSGAEVKKPGESVKVSCKASGYTFTNYGMNWVKQAPGQGLEWMGWINTYTGEPTYADKFQGRVTMTTDTSTSTAYMEIRNLGGDDTAVYYCARWSWSDGYYVYFDYWGQGTSVTVSSASTKGPSVFPLAPSSKSTSGGTAALGCLVKDYFPEPVTVSWNSGALTSGVHTFPAVLQSSGLYSLSSVVTVPSSSLGTQTYICNVNHKPSNTKVDKKVEPKSCDKTHTCPPCPAPEAAGGPSVFLFPPKPKDTLMISRTPEVTCVVVDVSHEDPEVKFNWYVDGVEVHNAKTKPREEQYNSTYRVVSVLTVLHQDWLNGKEYKCKVSNKALPAPIEKTISKAKGQPREPQVYTLPPSREEMTKNQVSLSCAVKGFYPSDIAVEWESNGQPENNYKTTPPVLDSDGSFFLVSKLTVDKSRWQQGNVFSCSVMHEALHNRYTQKSLSLSPGKGGSHHHHHH
light: DIVMTQSPDSLTVSLGERTTINCKSSQSVLDSSTNKNSLAWYQQKPGQPPKLLLSWASTRESGIPDRFSGSGSGTDFTLTIDSPQPEDSATYYCQQSAHFPITFGQGTRLEIKRTVAAPSVFIFPPSDEQLKSGTASVVCLLNNFYPREAKVQWKVDNALQSGNSQESVTEQDSKDSTYSLSSTLTLSKADYEKHKVYACEVTHQGLSSPVTKSFNRGEC
B1: it took 11.4 nM to reach a half-maximal effect (EC50).

Values taken from patent US20250206823A1 (published 2025).
